Patent US20240166720A1 (Janssen / Centocor, published 2024)

B1: TPP000182983 (Fc fusion)
chain: HTCPPCPAPEAAGGPSVFLFPPKPKDTLMISRTPEVTCVVVSVSHEDPEVKFNWYVDGVEVHNAKTKPREEQYNSTYRVVSVLTVLHQDWLNGKEYKCKVSNKALPAPIEKTISKAKGQPREPQVYTLPPSREEMTKNQVSLTCLVKGFYPSDIAVEWESNGQPENNYKTTPPVLDSDGSFFLYSKLTVDKSRWQQGNVFSCSVMHEALHNHYTQKSLSLSPGGGGGSNPQIAAHVISEASSKTTSVLQWAEKGYYTMSNNLVTLENGKQLTVKRQGLYYIYAQVTFCSNREASSQAPFIASLCLKSPGRFERILLRAANTHSSAKPCGQQSIHLGGVFELQPGASVFVNVTDPSQVSHGTGFTSFGLLKLGGGSGGGSGGGSNPQIAAHVISEASSKTTSVLQWAEKGYYTMSNNLVTLENGKQLTVKRQGLYYIYAQVTFCSNREASSQAPFIASLCLKSPGRFERILLRAANTHSSAKPCGQQSIHLGGVFELQPGASVFVNVTDPSQVSHGTGFTSFGLLKLGGGSGGGSGGGSNPQIAAHVISEASSKTTSVLQWAEKGYYTMSNNLVTLENGKQLTVKRQGLYYIYAQVTFCSNREASSQAPFIASLCLKSPGRFERILLRAANTHSSAKPCGQQSIHLGGVFELQPGASVFVNVTDPSQVSHGTGFTSFGLLKL
notes: Single chain trimeric CD40L fused to the C-terminus of the Fc; also called C4LW16
B2: TPP000161222 (Fc fusion)
chain: IAAHVISEASSKTTSVLQWAEKGYYTMSNNLVTLENGKQLTVKRQGLYYIYAQVTFCSNREASSQAPFIASLCLKSPGRFERILLRAANTHSSAKPCGQQSIHLGGVFELQPGASVFVNVTDPSQVSHGTGFTSFGLLKLEGKSSGSGSQIAAHVISEASSKTTSVLQWAEKGYYTMSNNLVTLENGKQLTVKRQGLYYIYAQVTFCSNREASSQAPFIASLCLKSPGRFERILLRAANTHSSAKPCGQQSIHLGGVFELQPGASVFVNVTDPSQVSHGTGFTSFGLLKLEGKSSGSGSQIAAHVISEASSKTTSVLQWAEKGYYTMSNNLVTLENGKQLTVKRQGLYYIYAQVTFCSNREASSQAPFIASLCLKSPGRFERILLRAANTHSSAKPCGQQSIHLGGVFELQPGASVFVNVTDPSQVSHGTGFTSFGLLKLVERKSCVECPPCPAPPVAGPSVFLFPPKPKDTLMISRTPEVTCVVVDVSHEDPEVQFNWYVDGVEVHNAKTKPREEQFNSTFRVVSVLTVVHQDWLNGKEYKCKVSNKGLPAPIEKTISKTKGQPREPQVYTLPPSREEMTKNQVSLTCLVKGFYPSDIAVEWESNGQPENNYKTTPPMLDSDGSFFLYSKLTVDKSRWQQGNVFSCSVMHEALHNHYTQKSLSLSPGK
notes: This protein had only 38.76% monomer after protein A; also called C40W33; JNJ75347415

Columns and labels:
[1] = target: native CD40 receptor on HEK-Blue CD40L reporter cells (UniProt P25942 21-277, limits assumed); test: cell-based or functional assay
[2] = target: T1, recombinant CD40 receptor (hu CD40) (human, UniProt P25942 21-193, limits assumed, biotinylated in the MSD assay (site not stated)); test: MSD electrochemiluminescence plate assay: biotinylated CD40 (10 ug/ml) on streptavidin plates, three-fold dilutions of the test article, anti-human Fc detection (Example 4)
T1 construct: also called biotinylated CD40
Experimental: Streptavidin sensor plates were coated with 10 ug/ml of biotinylated CD40 overnight at 4° C. The plates were washed 3× with PBS with 0.05% Tween 20 (PBST). Three-fold dilutions series of the test articles were prepared in PBS with 0.2% bovine serum albumin and 50 ul was applied to the plates for 1 hour at RT with shaking. Plates were washed 3× with PBST and anti-human Fc detection reagent at 2 ug/ml final concentration was applied for 1 hour at RT with shaking. The plates were washed 3× with PBST and 150 ul of 1× read buffer was added to the plates and data was collected on MSD instrument. Data was imported into […] Prism 8 software and analyzed and plotted based on the results three separate experiments.

T1 sequence (P25942 21-193 limits assumed): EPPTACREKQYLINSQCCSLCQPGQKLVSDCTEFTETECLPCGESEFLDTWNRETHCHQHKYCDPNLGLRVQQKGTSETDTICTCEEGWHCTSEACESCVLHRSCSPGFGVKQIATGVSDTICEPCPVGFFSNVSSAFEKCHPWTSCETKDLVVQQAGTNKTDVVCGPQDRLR
native CD40 receptor on HEK-Blue CD40L reporter cells, sequence (P25942 21-277 limits assumed): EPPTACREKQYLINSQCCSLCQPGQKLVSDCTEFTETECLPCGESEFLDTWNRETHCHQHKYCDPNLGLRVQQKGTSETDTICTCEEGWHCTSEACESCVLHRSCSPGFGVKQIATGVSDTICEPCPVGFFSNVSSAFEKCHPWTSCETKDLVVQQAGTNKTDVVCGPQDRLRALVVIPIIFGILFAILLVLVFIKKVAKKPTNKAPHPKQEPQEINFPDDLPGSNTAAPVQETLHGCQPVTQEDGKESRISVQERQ

| Binder | HEK-Blue reporter assay activity, fold against TPP000161222 [1] | EC50 (read off the curve) [2] | binding result [2] |
| --- | --- | --- | --- |
| B1 | 100 fold | ~0.09 µg/mL |  |
| B2 |  |  | binds |
